Source: paper PMC4598862, “Proteasome Activation is Mediated via a Functional Switch of the Rpt6 C-terminal Tail Following Chaperone-dependent Assembly” (Scientific Reports, 2015)

Legend:
[1] = target: α2-A79C-HA6 (S. cerevisiae) (UniProt P23639); test: cross-linking; as a8 but with 2 mM ADP (0.5 mM ADP in the washes)
α3-T81C-HA6 = target: T1, α3-T81C-HA6 (S. cerevisiae, UniProt P23638 1-258, T81C); test: cross-linking; proteasomes immunoprecipitated from yeast lysate on HA-agarose via the 6xHA tag of the α subunit, 1 mM ATP; engineered cysteine pair cross-linked with 0.1 mM BMOE, 1 h at 4 °C; SDS-PAGE, immunoblot for the Rpt protein and HA; wild-type and nas6Δ cells (no influence of Nas6); Rpt3-α2 also in rpt6-Δ1 cells (decreased); conditions: partners not purified
T1 construct: CP subunit α3, entire open reading frame with the cysteine substitution; also called α3^HA; source: expressed from the chromosomal locus in S. cerevisiae, immunoprecipitated from lysate on HA-agarose beads; not shown: 6xHA, C-terminal, kept
T1 sequence (looked up): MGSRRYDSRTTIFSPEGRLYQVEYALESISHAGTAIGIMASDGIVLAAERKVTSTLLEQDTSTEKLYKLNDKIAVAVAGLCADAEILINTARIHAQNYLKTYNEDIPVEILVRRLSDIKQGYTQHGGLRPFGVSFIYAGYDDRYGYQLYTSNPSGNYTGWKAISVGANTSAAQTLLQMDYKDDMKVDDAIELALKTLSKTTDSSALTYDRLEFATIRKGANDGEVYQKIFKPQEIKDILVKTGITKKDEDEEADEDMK

Row | Binder | percent decrease of crosslinking under ADP relative to ATP [1] [%] | percent decrease of the crosslink ratio (ATP) relative to the Rpt3-α2^HA ratio (ATP) (α3-T81C-HA6) [%]
1 | Rpt3-K428C (natural protein) MEELGIVTPVEKAVEEKPAVKSYASLLAQLNGTVNNNSALSNVNSDIYFKLKKLEKEYELLTLQEDYIKDEQRHLKRELKRAQEEVKRIQSVPLVIGQFLEPIDQNTGIVSSTTGMSYVVRILSTLDRELLKPSMSVALHRHSNALVDILPPDSDSSISVMGENEKPDVTYADVGGLDMQKQEIREAVELPLVQADLYEQIGIDPPRGVLLYGPPGTGKTMLVKAVANSTKAAFIRVNGSEFVHKYLGEGPRMVRDVFRLARENAPSIIFIDEVDSIATKRFDAQTGSDREVQRILIELLTQMDGFDQSTNVKVIMATNRADTLDPALLRPGRLDRKIEFPSLRDRRERRLIFGTIASKMSLAPEADLDSLIIRNDSLSGAVIAAIMQEAGLRAVRKNRYVILQSDLEEAYATQVKTDNTVDKFDFYC | 90 | –
2 | Rpt6-K405C (natural protein, S. cerevisiae, UniProt Q01939 1-405, looked up, RP base ATPase Rpt6; K405 is the last residue of Rpt6; source: expressed from the chromosomal locus in S. cerevisiae, in proteasomes immunoprecipitated from lysate via α3-HA6) MTAAVTSSNIVLETHESGIKPYFEQKIQETELKIRSKTENVRRLEAQRNALNDKVRFIKDELRLLQEPGSYVGEVIKIVSDKKVLVKVQPEGKYIVDVAKDINVKDLKASQRVCLRSDSYMLHKVLENKADPLVSLMMVEKVPDSTYDMVGGLTKQIKEIKEVIELPVKHPELFESLGIAQPKGVILYGPPGTGKTLLARAVAHHTDCKFIRVSGAELVQKYIGEGSRMVRELFVMAREHAPSIIFMDEIDSIGSTRVEGSGGGDSEVQRTMLELLNQLDGFETSKNIKIIMATNRLDILDPALLRPGRIDRKIEFPPPSVAARAEILRIHSRKMNLTRGINLRKVAEKMNGCSGADVKGVCTEAGMYALRERRIHVTQEDFELAVGKVMNKNQETAISVAKLFC | – | 43.6
